Source: paper PMC8041869

Columns and labels:
[1] = molecular target: SARS-CoV-2 S-protein receptor-binding domain (SARS-CoV-2) (UniProt P0DTC2); experiment: BLI
[2] = molecular target: SARS-CoV-2 S-protein receptor-binding domain (SARS-CoV-2) (UniProt P0DTC2); experiment: ELISA

Substance: human ACE2 extracellular domain, E37K variant, Fc-tagged dimeric form (from UniProt Q9BYF1-1 18-615) (Fc fusion)
- Kd [1]: 22.7 nM
- EC50 [2]: 15.8 nM
